According to patent CN111138537A (REYOUNG (SUZHOU) BIOPHARMACEUTICAL CO LTD, dated 2020):

Molecular target: T1, 人血清白蛋白 (human, UniProt P02768 25-609)
T1 construct: also called HSA; human serum albumin
Assay: SPR (Biacore T200), HSA amine-coupled to CM5 chip, NB22 as analyte

B1: 单域抗体NB22 (VHH)
VHH: QVQLQESGGGSVQAGGSLRLSCAASAYTYSTTCMAWFRQAPGKEREKVATITTGGTYPYYADSVKGRFTISQDNAKNTVYLQMNSLKPEDTAMYYCAADASWGCRLSGSWSTVYNYWGQGTQVTVSS
notes: Camel (Bactrian) VHH from a phage display library; expressed in E. coli periplasm with a C-terminal 6x His tag and nickel-purified; also called 抗人血清白蛋白单域抗体
B1 gave a Kd of 0.683 nM.
